In the Human Domainome abundance scans (Beltran et al. 2025) one finds abundance fitness data, which are given here for 59 variants.

± gives the uncertainty stated by the source.

B1: SWI/SNF complex subunit SMARCC2, residues 599 to 641; numbered along this chain, Q8TAQ2 (parent)
chain: REWTEQETLLLLEALEMYKDDWNKVSEHVGSRTQDECILHFLR

In the data set the parent is B1. The data set can be described thus: abundance fitness (aPCA) (normalised: wild type 0, dead -1); higher = more abundant; growth selection in yeast, the domain comes from the species named. The following applies: Homo sapiens.
Regarding REWTEQEFLLLLEALEMYKDDWNKVSEHVGSRTQDECILHFLR, the abundance fitness was -0.224 ± 0.14.
In the case of REWTEQEILLLLEALEMYKDDWNKVSEHVGSRTQDECILHFLR, the abundance fitness was determined as 0.046 ± 0.099.
Turning to REWTEQEWLLLLEALEMYKDDWNKVSEHVGSRTQDECILHFLR, the abundance fitness is -0.205 ± 0.076.
Take REWTEQEPLLLLEALEMYKDDWNKVSEHVGSRTQDECILHFLR: the abundance fitness is -0.843 ± 0.15.
With REWTEQEELLLLEALEMYKDDWNKVSEHVGSRTQDECILHFLR, the abundance fitness came out at 0.099 ± 0.12.
Turning to REWTEQEVLLLLEALEMYKDDWNKVSEHVGSRTQDECILHFLR, the abundance fitness came to 0.02 ± 0.082.
Consider REWTEQEMLLLLEALEMYKDDWNKVSEHVGSRTQDECILHFLR, for which the abundance fitness was determined as 0.124 ± 0.22.
As to REWTEQEQLLLLEALEMYKDDWNKVSEHVGSRTQDECILHFLR, the abundance fitness is 0.316 ± 0.069.
REWTEQEGLLLLEALEMYKDDWNKVSEHVGSRTQDECILHFLR: the abundance fitness came out at 0.156 ± 0.093.
For REWTEQEHLLLLEALEMYKDDWNKVSEHVGSRTQDECILHFLR, the abundance fitness was determined as 0.291 ± 0.1.
Regarding REWTEQEDLLLLEALEMYKDDWNKVSEHVGSRTQDECILHFLR, the abundance fitness was -0.177 ± 0.33.
Turning to REWTEQESLLLLEALEMYKDDWNKVSEHVGSRTQDECILHFLR, the abundance fitness is -0.102 ± 0.065.
With REWTEQELLLLLEALEMYKDDWNKVSEHVGSRTQDECILHFLR, the abundance fitness was -0.001 ± 0.082.
As to REWTEQERLLLLEALEMYKDDWNKVSEHVGSRTQDECILHFLR, the abundance fitness turned out to be 0.354 ± 0.054.
To REWTEQECLLLLEALEMYKDDWNKVSEHVGSRTQDECILHFLR belongs -0.006 ± 0.12; to REWTEQENLLLLEALEMYKDDWNKVSEHVGSRTQDECILHFLR, 0.287 ± 0.2; to REWTEQEALLLLEALEMYKDDWNKVSEHVGSRTQDECILHFLR, 0.109 ± 0.074.
Take REWTEQEKLLLLEALEMYKDDWNKVSEHVGSRTQDECILHFLR: the abundance fitness came to 0.075 ± 0.087.
For the variant RLWTEQETLLLLEALEMYKDDWNKVSEHVGSRTQDECILHFLR, the abundance fitness stood at 0.21 ± 0.071.
As for RVWTEQETLLLLEALEMYKDDWNKVSEHVGSRTQDECILHFLR, the figure is 0.247 ± 0.11; as for RKWTEQETLLLLEALEMYKDDWNKVSEHVGSRTQDECILHFLR, 0.344 ± 0.17; as for RSWTEQETLLLLEALEMYKDDWNKVSEHVGSRTQDECILHFLR, 0.37 ± 0.076.
For the variant RFWTEQETLLLLEALEMYKDDWNKVSEHVGSRTQDECILHFLR, the abundance fitness is -0.463 ± 0.28.
For the variant RTWTEQETLLLLEALEMYKDDWNKVSEHVGSRTQDECILHFLR, the abundance fitness is 0.414 ± 0.076.
As to RMWTEQETLLLLEALEMYKDDWNKVSEHVGSRTQDECILHFLR, the abundance fitness was 0.135 ± 0.18.
Take RQWTEQETLLLLEALEMYKDDWNKVSEHVGSRTQDECILHFLR: the abundance fitness worked out at 0.403 ± 0.14.
As to RCWTEQETLLLLEALEMYKDDWNKVSEHVGSRTQDECILHFLR, the abundance fitness is -0.52 ± 0.18.
Consider RNWTEQETLLLLEALEMYKDDWNKVSEHVGSRTQDECILHFLR, for which the abundance fitness turned out to be 0.317 ± 0.092.
As for RRWTEQETLLLLEALEMYKDDWNKVSEHVGSRTQDECILHFLR, the figure is 0.165 ± 0.061; as for RGWTEQETLLLLEALEMYKDDWNKVSEHVGSRTQDECILHFLR, 0.184 ± 0.095; as for RPWTEQETLLLLEALEMYKDDWNKVSEHVGSRTQDECILHFLR, 0.278 ± 0.12.
RDWTEQETLLLLEALEMYKDDWNKVSEHVGSRTQDECILHFLR: the abundance fitness was 0.56 ± 0.11.
As for RYWTEQETLLLLEALEMYKDDWNKVSEHVGSRTQDECILHFLR, the abundance fitness was 0.42 ± 0.16.
With RHWTEQETLLLLEALEMYKDDWNKVSEHVGSRTQDECILHFLR, the abundance fitness was 0.287 ± 0.074.
Consider RAWTEQETLLLLEALEMYKDDWNKVSEHVGSRTQDECILHFLR, for which the abundance fitness turned out to be 0.077 ± 0.058.
As for REDTEQETLLLLEALEMYKDDWNKVSEHVGSRTQDECILHFLR, the figure is 0.1 ± 0.12.
Regarding REYTEQETLLLLEALEMYKDDWNKVSEHVGSRTQDECILHFLR, the abundance fitness was -0.354 ± 0.23.
For REMTEQETLLLLEALEMYKDDWNKVSEHVGSRTQDECILHFLR, the abundance fitness is -0.181 ± 0.14.
On to RELTEQETLLLLEALEMYKDDWNKVSEHVGSRTQDECILHFLR, for which the abundance fitness is -0.168 ± 0.075.
In the case of REATEQETLLLLEALEMYKDDWNKVSEHVGSRTQDECILHFLR, the abundance fitness was -0.539 ± 0.25.
In the case of REETEQETLLLLEALEMYKDDWNKVSEHVGSRTQDECILHFLR, the abundance fitness was -0.431 ± 0.16.
In the case of REGTEQETLLLLEALEMYKDDWNKVSEHVGSRTQDECILHFLR, the abundance fitness is -0.424 ± 0.13.
As for REKTEQETLLLLEALEMYKDDWNKVSEHVGSRTQDECILHFLR, the figure is 0.681 ± 0.43.
Consider RESTEQETLLLLEALEMYKDDWNKVSEHVGSRTQDECILHFLR, for which the abundance fitness is -0.317 ± 0.1.
Consider REITEQETLLLLEALEMYKDDWNKVSEHVGSRTQDECILHFLR, for which the abundance fitness is -0.275 ± 0.41.
With REQTEQETLLLLEALEMYKDDWNKVSEHVGSRTQDECILHFLR, the abundance fitness was -0.247 ± 0.17.
As for REVTEQETLLLLEALEMYKDDWNKVSEHVGSRTQDECILHFLR, the abundance fitness is -0.203 ± 0.23.
RENTEQETLLLLEALEMYKDDWNKVSEHVGSRTQDECILHFLR: the abundance fitness is -0.226 ± 0.13.
REPTEQETLLLLEALEMYKDDWNKVSEHVGSRTQDECILHFLR: the abundance fitness was -0.045 ± 0.26.
Consider RETTEQETLLLLEALEMYKDDWNKVSEHVGSRTQDECILHFLR, for which the abundance fitness is -0.202 ± 0.15.
For RECTEQETLLLLEALEMYKDDWNKVSEHVGSRTQDECILHFLR, the abundance fitness was -0.518 ± 0.19.
As to REHTEQETLLLLEALEMYKDDWNKVSEHVGSRTQDECILHFLR, the abundance fitness was -0.058 ± 0.29.
To REWTEQETALLLEALEMYKDDWNKVSEHVGSRTQDECILHFLR belongs 0.142 ± 0.064; to REWTEQWTLLLLEALEMYKDDWNKVSEHVGSRTQDECILHFLR, -1.27 ± 0.45.
For REWTEQQTLLLLEALEMYKDDWNKVSEHVGSRTQDECILHFLR, the abundance fitness is 0.1 ± 0.13.
As to REWTEQVTLLLLEALEMYKDDWNKVSEHVGSRTQDECILHFLR, the abundance fitness is -0.815 ± 0.24.
Turning to REWTEQYTLLLLEALEMYKDDWNKVSEHVGSRTQDECILHFLR, the abundance fitness was -1.26 ± 0.23.
Take REWTEQFTLLLLEALEMYKDDWNKVSEHVGSRTQDECILHFLR: the abundance fitness was -1.44 ± 0.41.
In the case of REWTEQATLLLLEALEMYKDDWNKVSEHVGSRTQDECILHFLR, the abundance fitness is -0.448 ± 0.19.
